Here are results for one molecule from PMC6765112, “Specificity of MYB interactions relies on motifs in ordered and disordered contexts” (Nucleic Acids Research, 2019).

The target of the experiment is T1, L190V-MIM peptide (F180-G201 of MYB29, L190V) (Arabidopsis thaliana, UniProt Q9FLR1 180-201, L190V, biotin on the N-terminus).
T1 construct: MYB29, Arabidopsis thaliana, 22 residues F180-G201; source: synthetic peptide (TAG Copenhagen A/S)
T1 peptide (looked up): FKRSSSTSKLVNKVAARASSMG
Briefly: BLI; biotinylated peptide (1 μM) immobilised on streptavidin biosensors; MYC4Nt 130 to 0.1 μM; PBS pH 7.4, 1 mM DTT, 0.05% bovine serum albumin; BLItz; equilibrium responses fitted to a Hill equation. The settings on record: both partners purified. On the technique in general: BLI is a label-free optical method that tracks binding on a fibre tip over time.

B1: MYC4 N-terminal domain (L55-N253) (domain or fragment, Arabidopsis thaliana, UniProt O49687 55-253, looked up)
chain: LPQVNEDNLQQRLQALIEGANENWTYAVFWQSSHGFAGEDNNNNNTVLLGWGDGYYKGEEEKSRKKKSNPASAAEQEHRKRVIRELNSLISGGVGGGDEAGDEEVTDTEWFFLVSMTQSFVKGTGLPGQAFSNSDTIWLSGSNALAGSSCERARQGQIYGLQTMVCVATENGVVELGSSEIIHQSSDLVDKVDTFFNFN
notes: MYC4, Arabidopsis thaliana, N-terminal domain with the JID, residues L55-N253 (AA55-253); recombinant protein of 22.7 kDa; expressed from pET52u; source: E. coli BL21(DE3), purified (HisTrap HP IMAC, dialysed to PBS pH 7.4 with 1 mM DTT); not shown: 6xHis, C-terminal, kept
B1: the “fold weaker affinity than the WT-MIM peptide” value is around 10 fold.
